# Laboratory results: patent US20120237614A1, “PEPTIDE ABLE TO DISRUPT THE PROTEIN COMPLEX BETWEEN THE HIS273 MUTADED P53 PROTEIN AND THE ONCOSUPPRESSIVE P73 PROTEIN IN TUMOR CELLS AND THERAPEUTIC USES THEREOF” (priority 2009, published 2012)
# “Also recorded” adds a separate entry of the source.
# What was measured:
# m-p53His-273/p73 complex = molecular target: T1, m-p53His-273/p73 complex (Homo sapiens, UniProt P04637, R273H); assay: Coprecipitation (immunoprecipitation) test of the m-p53/p73 complex in MDA-MB-468 cells; assay type: cell-based; conditions: His-273 mutation, peptide 20 μM, anti-p73 immunoprecipitation
# T1 construct: Total cellular lysates (1 mg), have been immunoprecipitated with antibodies directed against p73; endogenous in cells; host or cells: MDA-MB-468
# Description: (A) MDA-MB-468 (5×10^5) cells have been transfected using a lipofectamine containing mixture, βgal expression vector, which normalizes transfection efficiency, and SIMPI peptide (20 μM). Total cellular lysates (1 mg), have been immunoprecipitated with antibodies directed against p73 and immunoglobulins (IgG). Immunoprecipitates and an aliquot (50 μg) of total lysate after 12% acrylamide gel electrophoretic run have been transferred on nitrocellulose membrane and labelled with antibodies shown in the figure. (B) MDA-MB-468 cells, have been transfected using SIMP1 and SIMP5,6. peptides. Successively, cells have been washed and stimulated with 3 μM Adriamycin. Total obtained lysates (30 μg) have been assayed for the expression of PARP and BAX apoptotic proteins. Lysate has been normalized by assaying γ-tubulin expression. (C-D). Transactivation tests have been carried out by transient transfection of H1299 cells using a mixture containing lipofectamine, SIMP1, SIMP5,6 indicated plasmids (20 μM each) together with pLUC-BAX reporter vector. To each reaction mixture an equal amount of […] expression vector was added, in order to normalize the transfection efficiency.
# The cell extracts have been processed in a lysis buffer containing 50 mm Tris HCl pH 8, 100 mM NaCl, 10% glycerol, 1% Triton X-100, 1 mM EDTA, 100 mM NaF, MgCl2, 1 mM PMSF, protease and phosphatase inhibitors. Then extracts have been sonicated and centrifuged at 14.000 rpm for 10 min for the debris removal.
# 50 μg of solubilised proteins have been separated by electrophoresis on 10 or 15% SDS-polyacrylamide gel. Western blot analysis has been carried out using anti-p53 primary antibodies (DO1 Calbiochem), rabbit anti-PARP, rabbit polyclonal anti-Bax, anti-p21 and anti-tubulin monoclonal antibodies (Calbiochem). […] Immunolabelled lanes have been detected using chemiluminescence analysis (Pierce). […]
# In order to evaluate the activity of SIMPI peptide and SIMP1KO and SIMP1M derivatives the ability in disrupting the oncogenic m-p53His-273/p73 complex has been analysed.
# [1] = test system: HT29 (His-273) colon carcinoma cells; assay: Transactivation test (pLUC-BAX) in Adriamycin treated HT29 cells; assay type: cell-based, human; conditions: 3 μM Adriamycin
# Description: (A) In order to verify the SIMPI peptide specificity, independently from the cellular context, we tested SIMP1 peptides in some Adriamicyn treated colon carcinoma HT29 (His-273). cell lines. The cells have been transfected using a mixture containing lipofectamine, pLUC-BAX plasmid, β-galactosidase expression vector, SIMP1 and SIMP5M control peptides. 24 hours post-transfection, have been treated with 3 μM Adriamicyn. (B-C). Viability and inhibition assays have been carried out after transfection using SIMP1 and SIMP5M peptides in HT29 (colon cancer) and MDA-MB-468 (breast cancer) cell lines
# SKBR3, HT-29, MDA-MB-468 cell lines have been transfected with Lipofectamine 2000 according to the supplier instructions (InVitrogen).
# Cells (1.5×10^5) have been transiently transfected using SIMP peptides, expression plasmids and reporter constructs as internal controls for transfection efficiency. After the transfection, SKBR3, HT-29 and MDA-MB-468 have been incubated with 3 μM ADR over 24 hours. Cells have been washed with cold PBS and re-suspended in lysis buffer (Promega) and incubated for 10 min at room temp. Insoluble material has been centrifuged and luciferase activity has been determined using a commercial kit with a luminometer (Turner).
# mutp53 His-273 protein = molecular target: T2, mutp53 His-273 protein (Homo sapiens, UniProt P04637, R273H); assay: Dot immunobinding test with total cell extracts; assay type: binding; conditions: total extracts 1 mg, peptide on nitrocellulose membrane
# T2 construct: Total extracts deriving from SKBR3, (His-175) HT29, (His-273) and H1299 (p53 free) tumour cells; endogenous in cells; host or cells: HT29 total cell extract
# Description: (§1) (A) Total extracts deriving from SKBR3, (His-175) HT29, (His-273) and H1299 (p53 free) tumour cells have been incubated (1 mg) on SIMP1 and SIMPIKO peptide labelled nitrocellulose membrane and Dot Blot analysed. In (B) the membranes have been incubated with 20 μg of wild type WT GST-p53 purified protein or GST-p53 His-175, GST-p53-His-175, 74-298 or GST alone. In both experiments dots have been detected by labelling the membranes with anti-p53 (DO1) antibody
# (§2) Nitrocellulose membranes have been cut, washed with water and blotted on the paper filters. The peptides at 250 mM concentration have been transferred on membrane. Labelled membrane has been washed for 10 min. with TBST buffer (10 mM Tris-HCl pH 7.4, 150 mM NaCl, 0.05% (v/v) Tween-20) and then blocked for 45 min with TBST/5% milk. Then the membranes have been incubated for 6 hours at 4° C. in shaker with 1 mg of total protein extract or 20 μg of GST fusion purified proteins. Successively the membranes have been washed with TBST buffer and decorated with anti-p53 antibody (DO1) as a primary antibody. As secondary antibody horse peroxidase conjugated goat antibody has been used. Immunolabelled lanes have been detected using chemiluminescence analysis (Pierce).
# (§3) The membranes decorated with SIMP peptides also have been incubated with GST-p53 His175, GST p53His74-298, GST WTp53 fusion proteins, GST control.
# GST-p53 His175 = GST-p53 His175 (Homo sapiens, UniProt P04637, R175H); assay: Dot immunobinding test with purified GST-p53 fusion proteins; assay type: binding; conditions: 20 μg GST fusion purified proteins
# Description: as §1, §2, §3
# HT29 cells = assay: In vivo tumorigenicity test (xenograft of peptide transfected HT29 cells); conditions: naked mice, s.c. 5×10^5 peptide transfected cells/mouse, 5 weeks
# Description: In order to assay SIMP1 in vivo antitumor activity nu/nu […] mice were administered subcutaneously with SIMP1, SIMP1KO and SIMP5M transfected HT29 cells (5.0×10^5 cells/mouse). Tumour growth has been monitored over 5 weeks.
# Xenograft assays have been carried out by administration to naked mice subcutaneous injections containing 5×10^5 cells/mouse of SIMP1, SIMP1KO and SIMP5M peptide transfected colon and rectum tumour human cell line (nu/nu CD1 Charles River mice). The tumour growth together with animal body weight is monitored for 5 weeks in order to estimate the chronic toxicity
# The experiments have been carried out by administration to naked mouse (nu/nu CD1 Charles River mice) subcutaneous injections containing 5×10^5 cells/mouse. The tumour growth has been monitored together with animal body weight for 5 weeks in order to estimate possible not occurred chronic toxic effects (FIG. 5).
sequence,measurement,setting,value
FQQSSTAKSATW (p73 SIMP (aa 131-142)) [SIMP1],disruption of m-p53 His-273/p73 protein complex (p73 bound m-p53 amount),m-p53His-273/p73 complex,suitable to disrupt m-p53/p73 complexes in tumour cells containing his-273 mutation; also recorded: disrupt selectively m-p53/p73 complex
same,disruption of m-p53 His-273/p73 protein complex (p73 bound m-p53 amount),m-p53His-273/p73 complex; listed as SIMPI,disrupts mutated p53/p73 protein complex; also recorded: largely reduced
same,sensitivity to Adriamycin,[1],made the same more sensitive to the treatment with Adriamycin
same,"direct binding to mutp53 His-273 (dot blot, anti-p53 DO1)",mutp53 His-273 protein,binds directly the mutp53 His-273 protein
same,"reaction with GST-p53 fusion proteins (dot blot, anti-p53 DO1)",GST-p53 His175,no reaction was observed
same,tumour growth (tumour size) in vivo,HT29 cells,tumour growth is decreased; also recorded: meaningful reduction of the growth (tumour size)
